Columns and labels:
DGAT activity = assay: Substrate preference of recombinant TmDGAT1 expressed in yeast H1246MATα; format: biochemical, Tropaeolum majus
Method: FIG. 8. Expression of TmDGAT1 in yeast mutant H1246 MATα. DGAT assays were performed on cell lysates of yeast quadruple mutant (DGAT-, PDAT-, ASAT1^−, ASAT2^−) strain:H1246 MATα transformed with pYES2.1/V5-His-TOPO plasmid only (Control) and TmDGAT1/pYES2.1 in the presence of ^14C-labeled 16:0-, 18:0-, 18:1-, eicosenoyl-(20:1 Δ11) and 22:1 acyl-CoAs and sn-1,2-diolein (18:1 DAG) or sn-1,2-dierucin (22:1 DAG). The enzyme activity is scarcely detected in the yeast strain harboring the empty control vector, and has been subtracted from the enzyme activities detected from the H1246MATα strain expressing the TmDGAT1.
The TmDGAT1 ORF (SEQ. ID. NO: 2) in pYES2.1/V5-His-TOPO plasmid was transformed into a quadruple yeast mutant H1246MATα (Sandager et al, 2002) using the S.c. EasyComp™ transformation Kit (Invitrogen). Yeast cells transformed with pYES2.1/V5-His-TOPO plasmid only were used as a control. Transformants were selected by growth on synthetic complete medium lacking uracil (SC-ura), supplemented with 2% (w/v) glucose. The colonies were transferred into liquid SC-ura with 2% (w/v) glucose and grown at 28° C. overnight. The overnight cultures were diluted to an OD of 0.4 in induction medium (SC-ura+2% Galactose+1% Raffinose), and were induced for 24-36 hours at 28° C. Cells were collected and broken using glass beads. The crude protein concentration in the lysates was normalized using the Biorad assay based on the method of (Bradford, 1976) and assayed for DGAT activity. DGAT assays were conducted at pH 7.4, with shaking at 100 rev/min in a water bath at 30° C. for 60 min. […] The ^14C-labelled TAGs were isolated and counted as described above for insect cell expression.
H1246MATα yeast cells harboring an empty pYES2.1 vector plasmid were used as a control. […] In both cases, the lowest level of TAG was detected when using the saturated 16:0-acyl-CoA. […]

[1] = test system: B. napus HEAR breeding line 2026; assay: Over-expression of TmDGAT1 in B. napus HEAR breeding line 2026; format: in vivo, Brassica napus
Excerpt: FIG. 12. Over expression of the TmDGAT1 in B. napus High erucic acid rapeseed breeding line 2026 (courtesy of Dr. P. B. E. McVetty, University of Manitoba). Effect of transformation of B. napus with the TmDGAT1 cDNA under control of the napin promoter on (A) oil content (as percentage of mature seed dry weight), (B) Total oil/100 seeds, (C) Relative net oil content (with the control average set at 100%). T1 seeds of B. napus plasmid-only control transgenic lines (napin:pSE; black bar) and napin:TmDGAT1 transgenic lines (hatched bars) are shown ±SE.
The final binary vector (napin/DGAT/nos) was verified and electroporated into Agrobacterium tumefaciens cells strain GV3101 containing helper plasmid pMP90 (Koncz and Schell, 1986). Plasmid integrity was verified by DNA sequencing following its re-isolation from A. tumefaciens and transformation into E. coli.
Arabidopsis thaliana (ecotype Columbia) WT and mutant line AS11 (Katavic et al., 1995; Zou et al, 1999) were transformed by a vacuum infiltration method (Clough and Bent, 1998). B. napus HEAR breeding line 2026 (courtesy of Dr. P. B. E. McVetty, University of Manitoba) was transformed utilizing hypocotyl explants and a modified method of DeBlock et al., 1998. Modifications of the hypocotyl explant transformation method were described previously (Zou et al., 1997).
Total lipid extracts (TLEs) were prepared as described above, and lipid class analyses, determination of oil content and composition in all seed lines from WT and the AS11 transgenic plants and in nasturtium seed were performed as described previously (Taylor et al., 1991; 1992 a & b; Zou et al., 1997; Jako et al., 2001). In all cases, the data represent the averages of three to five determinations. Intact-seed transmethylation followed by gas chromatography (GC) analysis provided equally reproducible analyses of Arabidopsis seed oil as reported by Li et al., (2006). […]

[2] = acceptor sn-1,2-diolein or sn-1,2-dierucin

B1: TmDGAT1: Tropaeolum majus acyl-CoA-dependent diacylglycerol acyltransferase 1, 518 amino acids (SEQ ID NO: 3), encoded by ORF SEQ ID NO: 2 (protein, listed as Tropaeolum majus)
chain: MAVAESSQNTTTMSGHGDSDLNNFRRRKPSSSVIEPSSSGFTSTNGVPATGHVAENRDQDRVGAMENATGSVNLIGNGGGVVIGNEEKQVGETDIRFTYRPSFPAHRRVRESPLSSDAIFKQSHAGLFNLCIVVLIAVNSRLIIENLMKYGWLIDTGFWFSSRSLGDWSIFMCCLTLPIFPLAAFIVEKLVQRNHISELVAVLLHVIVSTAAVLYPVIVILTCDSVYMSGVVLMLFGCIMWLKLVSYAHTSSDIRTLAKSGYKGDAHPNSTIVSCSYDVSLKSLAYFMVAPTLCYQPSYPRSSCIRKGWVVRQFVKLIVFIGLMGFIIEQYINPIVRNSKHPLKGDFLYAIERVLKLSVPNLYVWLCMFYSFFHLWLNILAELLRFGDREFYKDWWNAKTVAEYWKMWNMPVHRWMVRHLYFPCLRNGIPKEGAIIIAFLVSGAFHELCIAVPCHVFKLWAFIGIMFQVPLVLITNYLQEKFSNSMVGNMIFWFIFCILGQPMCVLLYYHDLINLKEK
DGAT activity; [2]
  DGAT activity using 20:1-CoA compared to 18:1-CoA: about 2 fold
  DGAT activity using 22:1-CoA compared to 18:1-CoA: ~3 fold
DGAT activity; data not shown
  activity with radiolabeled free fatty acids as acyl donors: no activity
[1]; T1 generation compared to average pSE plasmid-only control lines
  oil content increase: 3.5-4.5%
[1]; T1 seeds
  increase in oil content on a per 100-seed basis: 20 to 30 mg
[1]; T1 seeds compared with average of pSE controls
  net overall oil increase: ≤ 15%

— patent publication US8124835B2, “Acyl-coa-dependent diacylglycerol acyltransferas 1 (DGAT1) gene from Tropaeolum majus, protein encoded thereby and uses thereof” (National Research Council of Canada, priority 2006, dated 2012)
